Numbered stars: 1 amine (or outer) side, 2 acyl side, 3 side chain; on linkers, the order of the positions; unused ones are H or OH. Side chains are listed from the residue outwards. Ends that are not written are not given here. * marks the point of attachment. C20 diacid = O=C(O)CCCCCCCCCCCCCCCCCCC(=O)*; C18 diacid = O=C(O)CCCCCCCCCCCCCCCCC(=O)*; γGlu = O=C(O)[C@H](CCC(=O)[*:2])N[*:1]
T1: human amylin receptor (human calcitonin receptor + human RAMP3) (human) (UniProt P30988)
T1 sequence (looked up) 1: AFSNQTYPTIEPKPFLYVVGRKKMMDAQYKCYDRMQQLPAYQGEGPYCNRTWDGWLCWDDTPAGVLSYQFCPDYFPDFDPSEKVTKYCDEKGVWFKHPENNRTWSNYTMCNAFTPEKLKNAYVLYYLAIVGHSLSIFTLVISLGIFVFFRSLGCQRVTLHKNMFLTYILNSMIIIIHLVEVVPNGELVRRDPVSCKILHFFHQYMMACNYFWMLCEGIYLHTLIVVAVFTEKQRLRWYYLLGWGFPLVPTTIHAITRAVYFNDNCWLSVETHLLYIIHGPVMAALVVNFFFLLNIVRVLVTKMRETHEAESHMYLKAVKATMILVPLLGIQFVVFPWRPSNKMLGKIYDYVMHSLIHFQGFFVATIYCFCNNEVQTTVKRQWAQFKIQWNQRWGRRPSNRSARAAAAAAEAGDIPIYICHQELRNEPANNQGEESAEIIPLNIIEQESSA
T1 sequence (looked up) 2: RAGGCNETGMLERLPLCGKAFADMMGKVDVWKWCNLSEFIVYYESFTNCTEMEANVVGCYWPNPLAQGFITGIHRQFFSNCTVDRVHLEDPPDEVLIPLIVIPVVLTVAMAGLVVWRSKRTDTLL


Target: T1, human amylin receptor (human calcitonin receptor + human RAMP3) (human)
Assay: whole-cell competition vs 125I-rat amylin (Assay Va)

Row | IC50 | Binder
1 | 0.588 nM | {C20 diacid-γGlu}-ASELSTAALGKLSAELHELATYPKTETGSGSY-NH2 (SMILES CC(C)C[C@H](NC(=O)[C@H](C)NC(=O)[C@H](C)NC(=O)[C@@H](NC(=O)[C@H](CO)NC(=O)[C@H](CC(C)C)NC(=O)[C@H](CCC(=O)O)NC(=O)[C@H](CO)NC(=O)[C@H](C)NC(=O)CC[C@H](NC(=O)CCCCCCCCCCCCCCCCCCC(=O)O)C(=O)O)[C@@H](C)O)C(=O)NCC(=O)N[C@@H](CCCCN)C(=O)N[C@@H](CC(C)C)C(=O)N[C@@H](CO)C(=O)N[C@@H](C)C(=O)N[C@@H](CCC(=O)O)C(=O)N[C@@H](CC(C)C)C(=O)N[C@@H](Cc1c[nH]cn1)C(=O)N[C@@H](CCC(=O)O)C(=O)N[C@@H](CC(C)C)C(=O)N[C@@H](C)C(=O)N[C@H](C(=O)N[C@@H](Cc1ccc(O)cc1)C(=O)N1CCC[C@H]1C(=O)N[C@@H](CCCCN)C(=O)N[C@H](C(=O)N[C@@H](CCC(=O)O)C(=O)N[C@H](C(=O)NCC(=O)N[C@@H](CO)C(=O)NCC(=O)N[C@@H](CO)C(=O)N[C@@H](Cc1ccc(O)cc1)C(N)=O)[C@@H](C)O)[C@@H](C)O)[C@@H](C)O) [[N-terminal(C20 diacid-gGlu), des1, 12K, 23Y, 25K, 30S, 31G, 33Y]mimylin]
2 | 1.65 nM | {C18 diacid-γGlu}-ASEVSTAVVGRLSAELHEVATLPRTETGSGSP-NH2 (SMILES CC(C)C[C@H](NC(=O)[C@H](CCCNC(=N)N)NC(=O)CNC(=O)[C@@H](NC(=O)[C@@H](NC(=O)[C@H](C)NC(=O)[C@@H](NC(=O)[C@H](CO)NC(=O)[C@@H](NC(=O)[C@H](CCC(=O)O)NC(=O)[C@H](CO)NC(=O)[C@H](C)NC(=O)CC[C@H](NC(=O)CCCCCCCCCCCCCCCCC(=O)O)C(=O)O)C(C)C)[C@@H](C)O)C(C)C)C(C)C)C(=O)N[C@@H](CO)C(=O)N[C@@H](C)C(=O)N[C@@H](CCC(=O)O)C(=O)N[C@@H](CC(C)C)C(=O)N[C@@H](Cc1c[nH]cn1)C(=O)N[C@@H](CCC(=O)O)C(=O)N[C@H](C(=O)N[C@@H](C)C(=O)N[C@H](C(=O)N[C@@H](CC(C)C)C(=O)N1CCC[C@H]1C(=O)N[C@@H](CCCNC(=N)N)C(=O)N[C@H](C(=O)N[C@@H](CCC(=O)O)C(=O)N[C@H](C(=O)NCC(=O)N[C@@H](CO)C(=O)NCC(=O)N[C@@H](CO)C(=O)N1CCC[C@H]1C(N)=O)[C@@H](C)O)[C@@H](C)O)[C@@H](C)O)C(C)C) [[N-terminal(C18 diacid-gGlu), des1, 5V, 9V, 10V, 20V, 30S, 31G]mimylin]
3 | 5.45 nM | ASGLSTAALGRLSQELHELQTYPRTETGSK([γGlu-C20 diacid])TY-NH2 (N-terminus assumed; SMILES CC(C)C[C@H](NC(=O)CNC(=O)[C@H](CO)NC(=O)[C@H](C)N)C(=O)N[C@@H](CO)C(=O)N[C@H](C(=O)N[C@@H](C)C(=O)N[C@@H](C)C(=O)N[C@@H](CC(C)C)C(=O)NCC(=O)N[C@@H](CCCNC(=N)N)C(=O)N[C@@H](CC(C)C)C(=O)N[C@@H](CO)C(=O)N[C@@H](CCC(N)=O)C(=O)N[C@@H](CCC(=O)O)C(=O)N[C@@H](CC(C)C)C(=O)N[C@@H](Cc1c[nH]cn1)C(=O)N[C@@H](CCC(=O)O)C(=O)N[C@@H](CC(C)C)C(=O)N[C@@H](CCC(N)=O)C(=O)N[C@H](C(=O)N[C@@H](Cc1ccc(O)cc1)C(=O)N1CCC[C@H]1C(=O)N[C@@H](CCCNC(=N)N)C(=O)N[C@H](C(=O)N[C@@H](CCC(=O)O)C(=O)N[C@H](C(=O)NCC(=O)N[C@@H](CO)C(=O)N[C@@H](CCCCNC(=O)CC[C@H](NC(=O)CCCCCCCCCCCCCCCCCCC(=O)O)C(=O)O)C(=O)N[C@H](C(=O)N[C@@H](Cc1ccc(O)cc1)C(N)=O)[C@@H](C)O)[C@@H](C)O)[C@@H](C)O)[C@@H](C)O)[C@@H](C)O) [[des1, 4G, 15Q, 21Q, 23Y, 30S, 31K(C20 diacid-gGlu), 32T, 33Y]mimylin]
4 | 0.431 nM | {C20 diacid-γGlu}-ASGLSTAALGRLSTELHELETYPRTETGSGTY-NH2 (SMILES CC(C)C[C@H](NC(=O)CNC(=O)[C@H](CO)NC(=O)[C@H](C)NC(=O)CC[C@H](NC(=O)CCCCCCCCCCCCCCCCCCC(=O)O)C(=O)O)C(=O)N[C@@H](CO)C(=O)N[C@H](C(=O)N[C@@H](C)C(=O)N[C@@H](C)C(=O)N[C@@H](CC(C)C)C(=O)NCC(=O)N[C@@H](CCCNC(=N)N)C(=O)N[C@@H](CC(C)C)C(=O)N[C@@H](CO)C(=O)N[C@H](C(=O)N[C@@H](CCC(=O)O)C(=O)N[C@@H](CC(C)C)C(=O)N[C@@H](Cc1c[nH]cn1)C(=O)N[C@@H](CCC(=O)O)C(=O)N[C@@H](CC(C)C)C(=O)N[C@@H](CCC(=O)O)C(=O)N[C@H](C(=O)N[C@@H](Cc1ccc(O)cc1)C(=O)N1CCC[C@H]1C(=O)N[C@@H](CCCNC(=N)N)C(=O)N[C@H](C(=O)N[C@@H](CCC(=O)O)C(=O)N[C@H](C(=O)NCC(=O)N[C@@H](CO)C(=O)NCC(=O)N[C@H](C(=O)N[C@@H](Cc1ccc(O)cc1)C(N)=O)[C@@H](C)O)[C@@H](C)O)[C@@H](C)O)[C@@H](C)O)[C@@H](C)O)[C@@H](C)O) [[N-terminal(C20 diacid-gGlu), des1, 4G, 15T, 21E, 23Y, 30S, 31G, 32T, 33Y]mimylin]
5 | 0.222 nM | {C20 diacid}-ASGLSTAALGRLSQELHELQTYPRTETGSGTY-NH2 (SMILES CC(C)C[C@H](NC(=O)CNC(=O)[C@H](CO)NC(=O)[C@H](C)NC(=O)CCCCCCCCCCCCCCCCCCC(=O)O)C(=O)N[C@@H](CO)C(=O)N[C@H](C(=O)N[C@@H](C)C(=O)N[C@@H](C)C(=O)N[C@@H](CC(C)C)C(=O)NCC(=O)N[C@@H](CCCNC(=N)N)C(=O)N[C@@H](CC(C)C)C(=O)N[C@@H](CO)C(=O)N[C@@H](CCC(N)=O)C(=O)N[C@@H](CCC(=O)O)C(=O)N[C@@H](CC(C)C)C(=O)N[C@@H](Cc1c[nH]cn1)C(=O)N[C@@H](CCC(=O)O)C(=O)N[C@@H](CC(C)C)C(=O)N[C@@H](CCC(N)=O)C(=O)N[C@H](C(=O)N[C@@H](Cc1ccc(O)cc1)C(=O)N1CCC[C@H]1C(=O)N[C@@H](CCCNC(=N)N)C(=O)N[C@H](C(=O)N[C@@H](CCC(=O)O)C(=O)N[C@H](C(=O)NCC(=O)N[C@@H](CO)C(=O)NCC(=O)N[C@H](C(=O)N[C@@H](Cc1ccc(O)cc1)C(N)=O)[C@@H](C)O)[C@@H](C)O)[C@@H](C)O)[C@@H](C)O)[C@@H](C)O) [[N-terminal(C20 diacid), des1, 4G, 15Q, 21Q, 23Y, 30S, 31G, 32T, 33Y]mimylin]
6 | 1.17 nM | {C18 diacid-γGlu}-ASEVSTAVVGRLSAELHELATLPRTETGSGSP-NH2 (SMILES CC(C)C[C@H](NC(=O)[C@H](CCC(=O)O)NC(=O)[C@H](Cc1c[nH]cn1)NC(=O)[C@H](CC(C)C)NC(=O)[C@H](CCC(=O)O)NC(=O)[C@H](C)NC(=O)[C@H](CO)NC(=O)[C@H](CC(C)C)NC(=O)[C@H](CCCNC(=N)N)NC(=O)CNC(=O)[C@@H](NC(=O)[C@@H](NC(=O)[C@H](C)NC(=O)[C@@H](NC(=O)[C@H](CO)NC(=O)[C@@H](NC(=O)[C@H](CCC(=O)O)NC(=O)[C@H](CO)NC(=O)[C@H](C)NC(=O)CC[C@H](NC(=O)CCCCCCCCCCCCCCCCC(=O)O)C(=O)O)C(C)C)[C@@H](C)O)C(C)C)C(C)C)C(=O)N[C@@H](C)C(=O)N[C@H](C(=O)N[C@@H](CC(C)C)C(=O)N1CCC[C@H]1C(=O)N[C@@H](CCCNC(=N)N)C(=O)N[C@H](C(=O)N[C@@H](CCC(=O)O)C(=O)N[C@H](C(=O)NCC(=O)N[C@@H](CO)C(=O)NCC(=O)N[C@@H](CO)C(=O)N1CCC[C@H]1C(N)=O)[C@@H](C)O)[C@@H](C)O)[C@@H](C)O) [[N-terminal(C18 diacid-gGlu), des1, 5V, 9V, 10V, 30S, 31G]mimylin]
7 | 19.7 nM | {C18 diacid-γGlu}-ASELTTAVLGRLEAELHELTTLPRTETGTGTP-NH2 [[N-terminal(C18 diacid-gGlu), des1, 6T, 9V, 14E, 21T, 30T, 31G, 32T]mimylin]
8 | 0.186 nM | {C20 diacid-γGlu}-ASELSTAALGRLSAELHELSTYPRTETGSGSY-NH2 (SMILES CC(C)C[C@H](NC(=O)[C@H](C)NC(=O)[C@H](C)NC(=O)[C@@H](NC(=O)[C@H](CO)NC(=O)[C@H](CC(C)C)NC(=O)[C@H](CCC(=O)O)NC(=O)[C@H](CO)NC(=O)[C@H](C)NC(=O)CC[C@H](NC(=O)CCCCCCCCCCCCCCCCCCC(=O)O)C(=O)O)[C@@H](C)O)C(=O)NCC(=O)N[C@@H](CCCNC(=N)N)C(=O)N[C@@H](CC(C)C)C(=O)N[C@@H](CO)C(=O)N[C@@H](C)C(=O)N[C@@H](CCC(=O)O)C(=O)N[C@@H](CC(C)C)C(=O)N[C@@H](Cc1c[nH]cn1)C(=O)N[C@@H](CCC(=O)O)C(=O)N[C@@H](CC(C)C)C(=O)N[C@@H](CO)C(=O)N[C@H](C(=O)N[C@@H](Cc1ccc(O)cc1)C(=O)N1CCC[C@H]1C(=O)N[C@@H](CCCNC(=N)N)C(=O)N[C@H](C(=O)N[C@@H](CCC(=O)O)C(=O)N[C@H](C(=O)NCC(=O)N[C@@H](CO)C(=O)NCC(=O)N[C@@H](CO)C(=O)N[C@@H](Cc1ccc(O)cc1)C(N)=O)[C@@H](C)O)[C@@H](C)O)[C@@H](C)O) [[N-terminal(C20 diacid-gGlu), des1, 21S, 23Y, 30S, 31G, 33Y]mimylin]

Source: patent US20160272683A1 (Novo Nordisk, published 2016)
